Drawing on publication PMC6085827, this text covers percent reduction of MMP9 co-immunoprecipitated with long RECK for one substance.

In this experiment the target is S-tagged long RECK isoform (human) (UniProt O95980). The experiment in a line: co-IP.
Chain of UniProt O95980 (O95980 23-942): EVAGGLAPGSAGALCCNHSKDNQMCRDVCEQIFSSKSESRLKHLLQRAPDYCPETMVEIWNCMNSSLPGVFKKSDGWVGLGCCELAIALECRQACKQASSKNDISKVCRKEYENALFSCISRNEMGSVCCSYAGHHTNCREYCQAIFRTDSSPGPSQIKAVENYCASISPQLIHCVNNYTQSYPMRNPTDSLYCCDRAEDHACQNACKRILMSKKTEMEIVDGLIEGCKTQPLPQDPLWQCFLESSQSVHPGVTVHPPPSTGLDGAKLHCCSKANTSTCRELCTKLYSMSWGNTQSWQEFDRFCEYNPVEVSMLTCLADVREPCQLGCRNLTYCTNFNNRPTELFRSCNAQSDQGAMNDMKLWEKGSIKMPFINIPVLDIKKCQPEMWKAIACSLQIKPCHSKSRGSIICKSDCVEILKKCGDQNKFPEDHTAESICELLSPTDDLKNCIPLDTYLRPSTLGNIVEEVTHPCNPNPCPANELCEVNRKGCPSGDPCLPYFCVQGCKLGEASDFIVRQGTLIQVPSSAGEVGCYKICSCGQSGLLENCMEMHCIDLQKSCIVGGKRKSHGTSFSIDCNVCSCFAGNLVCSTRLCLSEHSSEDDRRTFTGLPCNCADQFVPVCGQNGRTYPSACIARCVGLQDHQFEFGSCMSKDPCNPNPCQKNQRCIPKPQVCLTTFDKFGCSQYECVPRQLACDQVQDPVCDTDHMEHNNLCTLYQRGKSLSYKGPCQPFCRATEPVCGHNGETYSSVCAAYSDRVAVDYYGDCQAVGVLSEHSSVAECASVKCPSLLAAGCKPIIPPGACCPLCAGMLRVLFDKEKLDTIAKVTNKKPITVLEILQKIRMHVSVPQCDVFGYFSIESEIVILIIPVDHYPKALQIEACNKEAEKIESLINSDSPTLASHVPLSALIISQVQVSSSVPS

For “Flag-tagged short RECK isoform (natural protein)”, the percent reduction of MMP9 co-immunoprecipitated with long RECK was found to be 88%.
